Source: patent US11583587B2, “Polymer” (VECTURA LIMITED, priority 2016, dated 2023)

Experiments:
complement proteins = experiment: Complement activation assay (residual haemolytic capacity of normal human serum); details: at the protein concentrations investigated
Method: Polymer-lysozyme nanocomplexes or free lysozyme were kept in contact with normal human serum (NHS) and the residual haemolytic capacity was measured to study the complement activation. NHS was received from healthy volunteers, aliquoted and stored at −80° C. until use. Sheep erythrocytes were sensitised by rabbit anti-sheep erythrocyte antibodies at a final dilution of 1/800 v/v and these sensitised sheep erythrocytes were suspended at a final concentration of 1×10^8 cells mL^−1 in veronal-buffer saline (VBS2+, containing 0.5 mM Mg and 0.15 mM Ca2+). VBS2+ and NHS were mixed with polymer-lysozyme nanocomplexes or free lysozyme at final protein concentration of 1.116 mg mL^−1 so that the final dilution of NHS in the reaction mixture was 1/4 (v/v) in a final volume of 400 μl. […] The supernatant was collected and the optical density was measured at 415 nm with Dynex absorbance microplate reader (Dynex technologies, USA).
Sample without serum was used here as […] (100% complement activation, 0% sensitised sheep erythrocytes lysis) and employed to correct the absorbance values from the samples. […] They can be calculated by a linear fit to a log-log version of the Von Krogh (equation 1). Particularly, in this study, the data was expressed as the percentage of complement activation relative to 100% complement activation observed with our positive control samples.

trypsin = experiment: Protein protection against proteolytic enzymes (trypsin, then poly(allyl amine) disassembly); type: biochemical, bovine
Method: In order to assess the enzymatic activity of the lysozyme model protein, a turbidimetric enzymatic assay was performed by measuring the decrease in optical density of a suspension of Micrococcus lysodeikticus lyophilized cells, a natural substrate for lysozyme, in PB. Nanocomplexes and also free lysozyme were extracted from the dry powders as previously described, at a protein concentration of […] (as quantified by BCA assay). 10 mg of lyophilised cells were added to 20 mL of PB. 300 μL of this substrate suspension were added to 150 μL of particle solution and the decrease in optical density was measured at λ=460 nm as a function of time for 60 sec. The absorbance decay plots from 0 to 10 sec were fitted to a linear equation and the enzymatic activities were then determined from the slope of the fitted line. Not spray-dried free lysozyme was used in this work as reference (100% enzymatic activity).
Nanocomplexes were recovered from the dry powders as previously described, at a protein concentration of 37 μg mL^−1 (as quantified by BCA assay). 657 μg of trypsin (≥10,000 BAEE units/mg protein) were added to 4 mL of particle solution and the mixture was kept at room temperature for 3 h under gentle stirring. […] Lysozyme activity was then quantified as previously described. […]

residual lysozyme activity after trypsin (trypsin; trypsin 3 h in PB, then poly(allyl amine) 1 h, % of initial activity): less than 40%
Substance: lysozyme: Model protein; samples named lysozyme contained no polymer (lysozyme 5% w/w)
hemolysis of sensitized sheep erythrocytes without serum (complement proteins): did not lead to hemolysis
decrease in enzymatic activity after trypsin (trypsin; no polymer added to the dry powder): > 60%
